Measurements reported in article PMC10659534 (Research Square, 2023).

B1: H7.HK1 (antibody, V domains shown)
VH: QVQLQESGPGLVKPSETLSLTCSVSGGSINSYYWTWIRQPPGKGLEWVGYIYHSGSTSYNPSLKSRITISVAPSKNHFSLELTSMTAADTAVYYCARLGGHGDYGSDYWGQGTLVTVSS
VL: DIVMTQSPVSLPVTPGEPASISCNSSQSLLHSNGYAHLDWYLQKPGQSPKLMIYLGLNRAFGVPDRFSGSGSGTDFTLKISRVEAEDVGVYYCMQALQTPFTFGPGTRVDIK
notes: also called H7.HK1 mAb; H7.HK1 human IgG1
B2: H7.HK2 (antibody, V domains shown)
VH: QVQLQGSGPGLLRPSETLSLTCSVSGVSINSYYWSWVRQPPGKALEWIGYIYYSGNTNYNPSLESRVTISVDRSKNQFSLKMTSVTAADTARYFCARQGIFGDYGSDYWGPGTLVTVSS
VL: DIVMTQSPLSLPVTPGEPASISCRSNQSLQHSNGYVHLDWYRQKPGQSPHLLIYLGFNRASGVPDRFSGGGSGTDFTLKISRVEAEDVGVYYCMQGLQTPFTFGPGTTVDLK
notes: also called H7.HK2 mAb; H7.HK2 human IgG1
B3: H7.HK4 (antibody, V domains shown)
VH: QVQLQESGPGLVKPSETLSLTCTVSGGSVRSASYAWSWIRQPPGKGLEWIGDIYYSGTTNYNPSLKSRVTLSVDTAKNRFSLRLRSVTAADTAVYHCARERYYYGSSGDFDYWGQGTLVTVSS
VL: DIQMTQSPSSLSASVGDRVTITCRASQGIRNYLAWFQQKPGQAPKSLIFAASSLHTGVPSRFSGSGSGTDFTLTISSLQPEDFATYYCQHYNSYPPTFGQGTKLEIK
notes: also called H7.HK4 mAb
B4: H7.HK3 (antibody, V domains shown)
VH: QVQLVQSGSELKRPGASVKVSCRASGYTFTSYTINWVRQAPGQGLEWMGWINTSTGDPTYAQGFTGRFVFSLDTSVSTAYLEISRLKAEDTAVYYCARAFGLTVVRGGIVGVWGQGTTVTVSS
VL: not shown
notes: also called H7.HK3 mAb

Key:
Assay in all cases: ELISA
Conditions in all cases: both partners purified
[1] = target: H7N9 HA (A/Shanghai/2/2013) pre-treated with Endoglycosidase H (Influenza A virus A/Shanghai/2/2013 …, UniProt R4NN21)
[2] = target: T1, soluble recombinant H7N9 HA based on A/Shanghai/2/2013 (Influenza A virus A/Shanghai/2/2013 …, UniProt R4NN21)
T1 construct: source: bought: Immune Technologies, New York, NY

[3] = target: T2, recombinant H7N7 HA based on A/Netherlands/219/2003 (Influenza A virus …, UniProt Q6VMK1)
T2 construct: source: bought: Immune Technologies, New York, NY

[4] = target: H7N9 HA1 based on A/Shanghai/2/2013 (Influenza A virus A/Shanghai/2/2013 …, UniProt R4NN21, strain)
[5] = target: H15N8 HA (Influenza A virus H15N8, strain not …, UniProt Q82565, strain)

Binder | binding result [1] | binding result [2] | binding result [3] | binding result [4] | binding result [5]
B1 | binds | binds | binds | binds | –
B2 | binds | binds | binds | binds | –
B3 | binds | binds | binds | no binding | binds
B4 | binds | binds | binds | binds | binds
